Data on one molecule can be found in patent publication US20060234285A1 (Human Genome Sciences, published 2006).

One may read the Kd as the equilibrium constant for the complex coming apart.

The target of test [1] is T1, Soluble human FLAG-FasL (synthesized at HGS) (human, UniProt P48023 130-281, limits assumed).
T1 construct: called trimerized in the kinetic BIAcore run; cross-linked with FLAG antibody in the cell assays; also called FasL-Flag; trimerized FLAG-FasL
T1 sequence (looked up): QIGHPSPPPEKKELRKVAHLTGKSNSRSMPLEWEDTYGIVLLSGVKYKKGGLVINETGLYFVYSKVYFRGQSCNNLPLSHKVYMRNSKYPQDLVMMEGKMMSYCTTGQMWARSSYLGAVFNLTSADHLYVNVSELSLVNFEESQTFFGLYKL
The test can be described thus: BIAcore, trimerized FLAG-FasL soluble. (In general: SPR reads the build-up and loss of mass on a sensor chip optically.)

The target of test [2] is T2, FLAG-tagged soluble form of TNF-gamma-beta (aa 72-251) (human, UniProt O95150 72-251).
T2 construct: also called FLAG-TL1β; FLAG-TNF-gamma-beta
T2 sequence (looked up): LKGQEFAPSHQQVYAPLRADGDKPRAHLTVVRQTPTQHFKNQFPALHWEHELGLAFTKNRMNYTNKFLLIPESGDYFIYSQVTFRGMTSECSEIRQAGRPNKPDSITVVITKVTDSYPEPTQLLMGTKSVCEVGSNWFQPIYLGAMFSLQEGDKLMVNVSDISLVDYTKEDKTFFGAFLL
The test can be described thus: coimmunoprecipitation with protein A-Sepharose, anti-Flag western blot. From the text: The beads were then precipitated and washed extensively with PBST buffer (PBS, 0.5% Triton X-100) before boiled in SDS-sample buffer. Proteins were resolved on 4-20% Tris-Glycine gels (NOVEX), transferred to nitrocellulose membranes, and blotted with anti-Flag M2 monoclonal antibody (1 microgram/ml, Sigma) and horseradish peroxidase (HRP)-conjugated goat anti-mouse IgG antibody (0.5 microgram/ml).
(A western blot detects proteins with antibodies after separation by electrophoresis.)

Test [3] has as its target T3, Human LIGHT, full length, on cells (stably transfected 293F cells; endogenous on activated human T cells) (human, UniProt O43557 1-240).
T3 construct: whole, on cells; also called LIGHT-transfectants; cell membrane LIGHT
The test is described as follows: flow cytometry on 293 cells overexpressing LIGHT. As for the experimental part:
This was tested on 293 cells overexpressing LIGHT according to flow cytometry.
Background: A flow cytometer gives signals particle by particle.

Test [4] has as its target T4, TNF-gamma-beta, full length, on transfected cells (human, UniProt O95150 1-251).
T4 construct: whole, on cells; also called TL1β
T4 sequence (looked up): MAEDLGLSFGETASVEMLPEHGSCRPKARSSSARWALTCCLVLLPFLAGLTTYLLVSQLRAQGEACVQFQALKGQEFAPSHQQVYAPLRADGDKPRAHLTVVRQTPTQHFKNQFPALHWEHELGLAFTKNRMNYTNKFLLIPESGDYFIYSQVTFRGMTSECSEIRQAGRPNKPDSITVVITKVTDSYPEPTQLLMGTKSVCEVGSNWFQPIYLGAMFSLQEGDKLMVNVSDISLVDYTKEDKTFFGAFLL
The test is described as follows: flow cytometry on HEK293F cells expressing full length TNF-gamma-beta. As for the experimental part:
One million cells, in 0.1 ml of FACS buffer (PBS, 0.1% BSA, 0.1% NaN₃), were incubated with 0.1-1 microgram of protein or antibody at RT for 15 min. The cells were washed with 3 ml of FACS buffer, reacted with biotinylated primary antibody, and stained with PE-conjugated secondary antibody at RT for 15 min. Cells were then washed again, resuspended in 0.5 microgram/ml of propidium iodide, and live cells were gated and analyzed on a FACScan using the CellQuest software (BD Biosciences).

Test [5] concerns the target T5, Murine FasL on transfected murine L929 cells (murine, UniProt P41047 1-279).
T5 sequence (looked up): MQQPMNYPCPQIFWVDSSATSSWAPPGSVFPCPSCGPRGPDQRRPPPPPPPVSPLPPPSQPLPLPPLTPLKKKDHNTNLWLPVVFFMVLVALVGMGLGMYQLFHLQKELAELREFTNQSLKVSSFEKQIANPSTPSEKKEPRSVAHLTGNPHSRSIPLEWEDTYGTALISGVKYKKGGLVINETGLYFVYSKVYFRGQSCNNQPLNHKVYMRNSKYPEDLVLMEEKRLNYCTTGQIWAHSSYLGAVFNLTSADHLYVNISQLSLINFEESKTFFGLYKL
The test can be described thus: cell-based or functional assay.

For test [6], the target named is T1, Soluble human FLAG-FasL (synthesized at …). The test can be described thus: cell-based or functional assay.

T3 sequence (O43557 whole entry): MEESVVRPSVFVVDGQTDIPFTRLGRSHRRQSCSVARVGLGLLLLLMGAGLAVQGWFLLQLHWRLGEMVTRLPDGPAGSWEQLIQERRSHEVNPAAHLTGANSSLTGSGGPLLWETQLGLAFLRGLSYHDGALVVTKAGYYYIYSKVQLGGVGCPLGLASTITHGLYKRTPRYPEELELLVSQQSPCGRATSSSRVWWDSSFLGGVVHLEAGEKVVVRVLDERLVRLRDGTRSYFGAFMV

B1: Human Fas(M1-G169)-Fc fusion protein (Fc fusion, UniProt P25445 26-169, looked up, not shown: a dimerising Fc or GST)
chain: QVTDINSKGLELRKTVTTVETQNLEGLHHDGQFCHKPCPPGERKARDCTVNGDEPDCVPCQEGKEYTDKAHFSSKCRRCRLCDEGHGLEVEINCTRTQNTKCRCKPNFFCNSTVCEHCDPCTKCEHGIIKECTLTSNTKCKEEG
notes: range 1-169; From CHO cells; a disulfide-linked dimer; also called Fas-Fc; FasFc
Regarding B1, the Kd in test [1] was 7.4 nM. Besides, the binding result in test [2], in test [3] and in test [4] was “no binding” each time. Further, the “IC50 of inhibition of killing of A20 target cells by murine FasL-transfected L929 cells” value in test [5] is approximately 100 ng/mL. Moreover, the “cross-linked FLAG-FasL mediated HT-29 cell death; shift of the cytotoxicity curve” value in test [6] was approximately 10 fold.
